What was measured:
[1] = molecular target: T1, alpha-fetoprotein (AFP) (Homo sapiens) (UniProt P02771); test: magnetic bead binding assay, antiF-POD, chronoamperometry; conditions: no amplification; 1:1 fit; 1x PBS, 25 °C, 30 min, 1300 rpm; 60 µg AFP-modified magnetic beads in 250 µL (effective AFP about 34 nM); washes 1x PBS 0.01% Tween 20; pH not stated
T1 sequence: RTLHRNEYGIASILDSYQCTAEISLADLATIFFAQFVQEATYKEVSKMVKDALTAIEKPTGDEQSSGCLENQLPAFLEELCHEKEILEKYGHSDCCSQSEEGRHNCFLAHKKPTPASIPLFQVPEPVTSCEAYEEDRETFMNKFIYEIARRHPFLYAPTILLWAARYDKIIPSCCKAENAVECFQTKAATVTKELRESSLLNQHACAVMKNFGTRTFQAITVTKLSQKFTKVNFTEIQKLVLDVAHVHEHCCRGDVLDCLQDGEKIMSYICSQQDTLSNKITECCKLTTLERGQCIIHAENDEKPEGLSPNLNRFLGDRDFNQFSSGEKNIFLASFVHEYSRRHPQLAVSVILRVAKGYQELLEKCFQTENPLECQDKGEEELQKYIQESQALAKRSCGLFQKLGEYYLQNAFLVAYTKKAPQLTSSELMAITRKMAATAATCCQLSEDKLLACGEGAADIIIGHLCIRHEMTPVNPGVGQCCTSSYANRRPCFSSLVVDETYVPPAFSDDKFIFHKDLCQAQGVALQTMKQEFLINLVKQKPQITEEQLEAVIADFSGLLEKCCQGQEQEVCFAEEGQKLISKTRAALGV

alpha-fetoprotein (AFP) [2] = molecular target: T2, alpha-fetoprotein (AFP) (Homo sapiens, UniProt P02771 19-609); test: magnetic bead binding assay, antiF-POD, chronoamperometry; no amplification; Hill n = 1.6 ± 0.4; 1x PBS, 25 °C, 30 min, 1300 rpm; 60 µg AFP-modified magnetic beads in 250 µL (effective AFP about 34 nM); washes 1x PBS 0.01% Tween 20; pH not stated; conditions: protein: native; label: 5' FITC
T2 sequence: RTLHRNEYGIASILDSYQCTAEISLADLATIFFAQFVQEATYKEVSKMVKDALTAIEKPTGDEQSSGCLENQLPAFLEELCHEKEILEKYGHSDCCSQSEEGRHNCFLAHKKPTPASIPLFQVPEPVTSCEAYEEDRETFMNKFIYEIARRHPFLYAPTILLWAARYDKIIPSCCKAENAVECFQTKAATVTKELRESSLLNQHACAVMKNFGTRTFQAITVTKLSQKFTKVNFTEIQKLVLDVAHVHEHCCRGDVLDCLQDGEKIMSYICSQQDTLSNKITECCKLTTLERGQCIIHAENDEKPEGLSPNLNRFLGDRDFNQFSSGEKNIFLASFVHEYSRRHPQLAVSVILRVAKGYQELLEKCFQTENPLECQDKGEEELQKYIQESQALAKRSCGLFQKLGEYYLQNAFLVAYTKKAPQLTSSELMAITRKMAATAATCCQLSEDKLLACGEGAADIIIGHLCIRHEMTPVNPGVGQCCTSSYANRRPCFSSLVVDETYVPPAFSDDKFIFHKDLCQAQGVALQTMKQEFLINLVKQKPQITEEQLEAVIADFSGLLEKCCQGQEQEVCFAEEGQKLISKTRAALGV

alpha-fetoprotein (AFP) [3] = molecular target: T2, alpha-fetoprotein (AFP); test: magnetic bead binding assay, TdT amplification, SA-POD, chronoamperometry; apparent Kd; TdT elongation after binding; Langmuir fit; 1x PBS, 25 °C, 30 min, 1300 rpm; 60 µg AFP-modified magnetic beads in 250 µL (effective AFP about 34 nM); washes 1x PBS 0.01% Tween 20; pH not stated; conditions: protein: native
alpha-fetoprotein (AFP) [4] = molecular target: T2, alpha-fetoprotein (AFP); test: magnetic bead binding assay, RCA amplification, antiF-POD, chronoamperometry; apparent Kd; RCA after binding; Langmuir fit (abstract prints 189 nM); 1x PBS, 25 °C, 30 min, 1300 rpm; 60 µg AFP-modified magnetic beads in 250 µL (effective AFP about 34 nM); washes 1x PBS 0.01% Tween 20; pH not stated; conditions: protein: native

## TCAGGTGCAGTTCTCGACTCGGTCTTGATGTGGGT [AFP-S-FITC]
[1]
  Kd: 713 nM

B1: AFP-L-FITC (ssDNA)
DNA: GGCAGGAAGACAAACAAGCTTGGCGGCGGGAAGGTGTTTAAATTCCCGGGTCTGCGTGGTCTGTGGTGCTGT
alpha-fetoprotein (AFP) [2]
  Kd: 526 ± 101 nM

B2: AFP-L-TdT (ssDNA)
DNA: GGCAGGAAGACAAACAAGCTTGGCGGCGGGAAGGTGTTTAAATTCCCGGGTCTGCGTGGTCTGTGGTGCTGTTTTTTT
alpha-fetoprotein (AFP) [3]
  Kd: 32 ± 11 nM

B3: AFP-S-RCA (ssDNA)
DNA: TCAGGTGCAGTTCTCGACTCGGTCTTGATGTGGGTTTTTTTTTTTAGATAGTAAGTGCAATCT
alpha-fetoprotein (AFP) [4]
  Kd: 188 ± 33 nM

Reference: article PMC7277757, “On the Electrochemical Detection of Alpha-Fetoprotein Using Aptamers: DNA Isothermal Amplification Strategies to Improve the Performance of Weak Aptamers”
